{"source": "patent US20150183820A1", "key": {"[1]": {"molecular_target": "gamma-globulin derived from human serum (Wako Pharmaceuticals)", "assay": "pH gradient affinity chromatography, commercial comparison column"}, "[2]": {"molecular_target": "human IgG3", "assay": "pH gradient affinity chromatography, Epoxy-activated Sepharose 6B immobilized column"}, "[3]": {"molecular_target": "IgG1 type humanized monoclonal antibody", "assay": "pH gradient affinity chromatography, Epoxy-activated Sepharose 6B immobilized column"}, "[4]": {"molecular_target": "Fc region of human immunoglobulin (human)", "assay": "SPR, Fc on CM4 chip, pH 4.5, 1:1 Langmuir"}, "[5]": {"molecular_target": "Fc region of human immunoglobulin (human)", "assay": "SPR, Fc on CM5 chip, pH 7.4, 1:1 Langmuir"}, "[6]": {"molecular_target": "IgG1 type humanized monoclonal antibody", "assay": "SPR, IgG1 antibody amine-coupled on CM-5 chip (5000 RU), pH 7.4, 25 C, 1:1 Langmuir"}, "[7]": {"molecular_target": "Fc region of human immunoglobulin (human)", "assay": "SPR, Fc on CM5 chip, pH 7.4"}, "[8]": {"molecular_target": "Fc region of human immunoglobulin (human)", "assay": "SPR, Fc on CM4 chip, pH 4.5"}, "[9]": {"molecular_target": "human IgG3", "assay": "pH gradient affinity chromatography, SulfoLink immobilized column"}, "[10]": {"molecular_target": "IgG1 type humanized monoclonal antibody", "assay": "pH gradient affinity chromatography, SulfoLink immobilized column"}, "[11]": {"molecular_target": "IgG1 type humanized monoclonal antibody", "assay": "SPR, IgG1 antibody amine-coupled on CM-5 chip, pH 7.4"}, "[12]": {"molecular_target": "gamma-globulin derived from human serum (Wako Pharmaceuticals)", "assay": "pH gradient affinity chromatography, DSC-activated immobilized column"}, "[13]": {"molecular_target": "IgG1 type humanized monoclonal antibody"}, "[14]": {"molecular_target": "human immunoglobulin IgG", "assay": "SPR, binder on SA chip, dissociation at pH 4.0, 1:1 Langmuir"}, "[15]": {"molecular_target": "human immunoglobulin IgG", "assay": "SPR, binder on SA chip, 1 uM IgG, dissociation in 10 mM sodium acetate pH 4.0"}, "[16]": {"molecular_target": "ChromPure Human IgG, Fc Fragment (human)", "assay": "stepwise pH affinity chromatography, binder immobilized on streptavidin column"}, "[17]": {"molecular_target": "IgG1 type humanized monoclonal antibody", "assay": "pH gradient affinity chromatography, binder immobilized on streptavidin column"}, "[18]": {"molecular_target": "human immunoglobulin IgG", "assay": "SPR, binder on SA chip, dissociation at pH 4.0"}}, "note": "Where two headings read alike, the source gives them in different places."}
{"molecule": "Sepharose 4 Fast Flow column (GE Healthcare)", "values": [{"measurement": "elution peak pH", "setting": "[1]", "value": 3.2, "unit": "pH"}]}
{"molecule": "CGB01H-3D (protein) MAYYDPETGTWYSGGRDTYKLILNGKTLKGETTTEAVDAATAEKVFKQYANDNGVDGEWTYDDATKTFTVTERPEVIDASELTPAVDTYKLILNGKTLKGETTTEAVDAATAEKVFKQYANDNGVDGEWTYDDATKTFTVTERPEVIDASELTPAVDTYKLILNGKTLKGETTTEAVDAATAEKVFKQYANDNGVDGEWTYDDATKTFTVTERPEVIDASELTPAVGGGGCHHHHHH", "values": [{"measurement": "elution peak pH", "setting": "[2]", "value": 3.4, "unit": "pH"}, {"measurement": "elution peak pH", "setting": "[3]", "value": 3.3, "unit": "pH"}]}
{"molecule": "M-PG07 (designed binder) MDTYKLILNGKTLKGETTTEAVDAATAEKVFKQYANEHGVDGEWTYDPETKTFTVTE", "values": [{"measurement": "Kd", "setting": "[4]", "value": 230, "unit": "nM"}, {"measurement": "Kd", "setting": "[5]", "value": 290, "unit": "nM"}]}
{"molecule": "M-PG19 (designed binder) MDTYKLILNGKTLKGETTTEAVDAATAEKVFKHYANEHGVHGHWTYDPETKTFTVTE", "values": [{"measurement": "Kd", "setting": "[6]", "value": 19, "unit": "nM"}, {"measurement": "avidity in the neutral region against M-PG01", "setting": "[7]", "value": 11, "unit": "times"}, {"measurement": "affinity in the acidic region against M-PG01", "setting": "[8]", "value": 0.6, "unit": "times"}, {"measurement": "Kd", "setting": "[4]", "value": 1000, "unit": "nM"}, {"measurement": "Kd", "setting": "[5]", "value": 43, "unit": "nM"}]}
{"molecule": "CGB19H-3D (designed binder) MAYYDPETGTWYSGGRDTYKLILNGKTLKGETTTEAVDAATAEKVFKHYANEHGVHGHWTYDPETKTFTVTERPEVIDASELTPAVDTYKLILNGKTLKGETTTEAVDAATAEKVFKHYANEHGVHGHWTYDPETKTFTVTERPEVIDASELTPAVDTYKLILNGKTLKGETTTEAVDAATAEKVFKHYANEHGVHGHWTYDPETKTFTVTERPEVIDASELTPAVGGGGCHHHHHH", "values": [{"measurement": "elution peak pH", "setting": "[9]", "value": 5.2, "unit": "pH"}, {"measurement": "elution peak pH", "setting": "[10]", "value": 4.3, "unit": "pH"}, {"measurement": "elution peak pH", "setting": "[2]", "value": 4.9, "unit": "pH"}, {"measurement": "Kd", "setting": "[6]", "value": 0.1, "unit": "nM"}, {"measurement": "avidity improvement against the single domain-type M-PG19", "setting": "[11]", "value": 190, "unit": "fold"}, {"measurement": "difference of the dissociation rate constants against M-PG19", "setting": "[11]", "value": 370, "unit": "times"}, {"measurement": "elution peak pH", "setting": "[12]", "value": 3.6, "unit": "pH"}, {"measurement": "elution peak pH", "setting": "[13]", "value": 4.3, "unit": "pH"}]}
{"molecule": "OXADac-PG01 (protein) MGAGTPVTAPLAGTIWKVLASEGQTVAAGEVLLILEAMKMETEIRAAQAGTVRGIAVKAGDAVAVGDTLMTLAGSGSDLYDDDDKGIITSLYKKAGSAAAPFTDTYKLILNGKTLKGETTTEAVDAATAEKVFKQYANDNGVDGEWTYDDATKTFTVTE", "values": [{"measurement": "koff", "setting": "[14]", "value": "4.2e-05", "unit": "s⁻¹"}, {"measurement": "ratio of the remaining amount of antibody by SPR sensorgram at pH 4.0", "setting": "[15]", "value": 99, "unit": "%"}, {"measurement": "recovery ratio of antibody in step-wise pH chromatography at pH 4.0", "setting": "[16]", "value": 10, "unit": "%"}, {"measurement": "value of the elution peak of antibody in pH-gradient chromatography", "setting": "[17]", "value": 3.18, "unit": "pH"}]}
{"molecule": "OXADac-PG16 (designed binder) MGAGTPVTAPLAGTIWKVLASEGQTVAAGEVLLILEAMKMETEIRAAQAGTVRGIAVKAGDAVAVGDTLMTLAGSGSDLYDDDDKGIITSLYKKAGSAAAPFTDTYKLILNGKTLKGETITEAVDAATAEKVFKQYANEHGVDGEWTYDPETKTFTVTE", "values": [{"measurement": "koff", "setting": "[14]", "value": 0.00013, "unit": "s⁻¹"}, {"measurement": "ratio of the remaining amount of antibody by SPR sensorgram at pH 4.0", "setting": "[15]", "value": 94, "unit": "%"}]}
{"molecule": "OXADac-PG17 (designed binder) MGAGTPVTAPLAGTIWKVLASEGQTVAAGEVLLILEAMKMETEIRAAQAGTVRGIAVKAGDAVAVGDTLMTLAGSGSDLYDDDDKGIITSLYKKAGSAAAPFTDTYKLILNGKRLKGETITEAVDAATAEKVFKQYANEHGVDGEWTYDPETKTFTVTE", "values": [{"measurement": "koff", "setting": "[14]", "value": 0.032, "unit": "s⁻¹"}, {"measurement": "ratio of the remaining amount of antibody by SPR sensorgram at pH 4.0", "setting": "[15]", "value": 86, "unit": "%"}, {"measurement": "value of the elution peak of antibody in pH-gradient chromatography", "setting": "[17]", "value": 3.27, "unit": "pH"}]}
{"molecule": "OXADac-PG14 (designed binder) MGAGTPVTAPLAGTIWKVLASEGQTVAAGEVLLILEAMKMETEIRAAQAGTVRGIAVKAGDAVAVGDTLMTLAGSGSDLYDDDDKGIITSLYKKAGSAAAPFTDTYKLILNGKTLKGETTTEAVDAATAEKVFKQYANEHGVDGHWTYDPETKTFTVTE", "values": [{"measurement": "koff", "setting": "[14]", "value": 0.04, "unit": "s⁻¹"}, {"measurement": "ratio of the remaining amount of antibody by SPR sensorgram at pH 4.0", "setting": "[15]", "value": 71, "unit": "%"}]}
{"molecule": "OXADac-PG15 (designed binder) MGAGTPVTAPLAGTIWKVLASEGQTVAAGEVLLILEAMKMETEIRAAQAGTVRGIAVKAGDAVAVGDTLMTLAGSGSDLYDDDDKGIITSLYKKAGSAAAPFTDTYKLILNGKRLKGETTTEAVDAATAEKVFKQYANEHGVDGEWTYDPETKTFTVTE", "values": [{"measurement": "koff", "setting": "[14]", "value": 0.00044, "unit": "s⁻¹"}, {"measurement": "ratio of the remaining amount of antibody by SPR sensorgram at pH 4.0", "setting": "[15]", "value": 90, "unit": "%"}]}
{"molecule": "OXADac-PG07 (designed binder) MGAGTPVTAPLAGTIWKVLASEGQTVAAGEVLLILEAMKMETEIRAAQAGTVRGIAVKAGDAVAVGDTLMTLAGSGSDLYDDDDKGIITSLYKKAGSAAAPFTDTYKLILNGKTLKGETTTEAVDAATAEKVFKQYANEHGVDGEWTYDPETKTFTVTE", "values": [{"measurement": "koff", "setting": "[14]", "value": 0.00011, "unit": "s⁻¹"}, {"measurement": "ratio of the remaining amount of antibody by SPR sensorgram at pH 4.0", "setting": "[15]", "value": 93, "unit": "%"}]}
{"molecule": "OXADac-PG19 (designed binder) MGAGTPVTAPLAGTIWKVLASEGQTVAAGEVLLILEAMKMETEIRAAQAGTVRGIAVKAGDAVAVGDTLMTLAGSGSDLYDDDDKGIITSLYKKAGSAAAPFTDTYKLILNGKTLKGETTTEAVDAATAEKVFKHYANEHGVHGHWTYDPETKTFTVTE", "values": [{"measurement": "koff", "setting": "[14]", "value": 0.27, "unit": "s⁻¹"}, {"measurement": "ratio of the remaining amount of antibody by SPR sensorgram at pH 4.0", "setting": "[15]", "value": 38, "unit": "%"}, {"measurement": "increase of the dissociation rate constant against the wild-type (OXADac-PG01) (orders of magnitude)", "setting": "[18]", "value": 3}, {"measurement": "percent of adsorbed IgG dissociated at pH 4.0", "setting": "[18]", "value": 60, "unit": "%"}, {"measurement": "elution rate at pH 4 against the wild-type (OXADac-PG01)", "setting": "[16]", "value": 7, "unit": "times"}, {"measurement": "recovery ratio of antibody in step-wise pH chromatography at pH 4.0", "setting": "[16]", "value": 88, "unit": "%"}, {"measurement": "value of the elution peak of antibody in pH-gradient chromatography", "setting": "[17]", "value": 4.04, "unit": "pH"}]}
{"molecule": "OXADac-PG20 (designed binder) MGAGTPVTAPLAGTIWKVLASEGQTVAAGEVLLILEAMKMETEIRAAQAGTVRGIAVKAGDAVAVGDTLMTLAGSGSDLYDDDDKGIITSLYKKAGSAAAPFTDTYKLILNGKTLKGETTTEAVHAATAEKVFKHYANEHGVHGHWTYDPETKTFTVTE", "values": [{"measurement": "ratio of the remaining amount of antibody by SPR sensorgram at pH 4.0", "setting": "[15]", "value": 58, "unit": "%"}, {"measurement": "elution rate at pH 4 against the wild-type (OXADac-PG01)", "setting": "[16]", "value": 7, "unit": "times"}, {"measurement": "recovery ratio of antibody in step-wise pH chromatography at pH 4.0", "setting": "[16]", "value": 71, "unit": "%"}, {"measurement": "elution pH difference against the wild-type (OXADac-PG01)", "setting": "[17]", "value": 1.1, "unit": "pH points"}, {"measurement": "value of the elution peak of antibody in pH-gradient chromatography", "setting": "[17]", "value": 4.29, "unit": "pH"}]}
{"molecule": "OXADac-PG13 (designed binder) MGAGTPVTAPLAGTIWKVLASEGQTVAAGEVLLILEAMKMETEIRAAQAGTVRGIAVKAGDAVAVGDTLMTLAGSGSDLYDDDDKGIITSLYKKAGSAAAPFTDTYKLILNGKTLKGETTTEAVDAATAEKVFKQYANEHGVHGEWTYDPETKTFTVTE", "values": [{"measurement": "koff", "setting": "[14]", "value": 0.06, "unit": "s⁻¹"}, {"measurement": "ratio of the remaining amount of antibody by SPR sensorgram at pH 4.0", "setting": "[15]", "value": 64, "unit": "%"}, {"measurement": "value of the elution peak of antibody in pH-gradient chromatography", "setting": "[17]", "value": 3.56, "unit": "pH"}]}
